T1: Recombinant NT antigen (N-terminal pro-brain natriuretic peptide, NT-proBNP) (human, UniProt P16860 27-102)
T1 construct: domain: N-terminal pro-brain natriuretic peptide (NT-proBNP); also called recombinant NT protein; N-terminal pro-B-type natriuretic peptide
T1 sequence (looked up): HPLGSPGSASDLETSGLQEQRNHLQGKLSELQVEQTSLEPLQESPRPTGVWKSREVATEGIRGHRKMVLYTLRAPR


Target: T1, Recombinant NT antigen (N-terminal …)
Test: indirect ELISA, KD calculated from half-max OD at 4 coating concentrations
Protocol: Recombinant NT antigen was diluted with coating solution to 1 μg/ml a microplate overnight at 4° C.; which was washed twice with washing solution and patted dry on the next day; with addition of blocking solution (20% BSA+80% PBS) at 120 μL per well at 37° C. for 1 h and patted dry; added the diluted NT monoclonal antibody, 100 μL/well at 37° C. for 30 min (partial supernatant for 1 h); washed 5 times with washing solution and patted dry; added rabbit anti-goat IgG-HRP […] per well at 37° C. for 30 min; washed 5 times with washing solution and patted dry; added color developing solution A (50 μL/well), added color developing solution B (50 μL/well) for 10 min; added stop solution, 50 μL/well; followed by reading the OD value at 450 nm (reference 630 nm) on the microplate reader.
Data from the enzyme immunoassay indirect method were analyzed in the same way as the activity identification, with four gradients of 3 μg/ml, 1.5 μg/ml, 0.75 μg/ml and 0.375 μg/ml for coating; the antibody was diluted from 1000 ng/ml by 2 times to 0.977 ng/ml for loading sample. OD values corresponding to different antibody concentrations at different coating concentrations were obtained. Under the same coating concentration, data were plotted logarithmically with the antibody concentration as the abscissa and the OD value as the ordinate.

| Binder | Kd [nM] |
| --- | --- |
| Mutation 1-27 (antibody) heavy: QVRLQESGPSQVKPAQTLSLTCAISGFSITTYYIDWVRHTPGKPPEWLAQMTKDGNAVHNPTLRSRLSITRDTSKSQVFLKLTGVTTEDTAVYYCVRGLIDFGPGLLVTVSSASTTPPKVYPLTSCCGDTSSSIVTLGCLVSSYMPEPVTVTWNSGALTSGVHTFPAILQSSGLYSLSSVVTVPASTSGAQTFICNVAHPASSTKVDKRVEPGCPDPCKHCRCPPPELPGGPSVFIFPPKPKDTLTISGTPEVTCVVVDVGQDDPEVQFSWFVDNVEVRTARTKPREEQFNSTFRVVSALPIQHQDWTGGKEFKCKVHNEGLPAPIVRTISRTKGQAREPQVYVLAPPQEELSKSTLSVTCLVTGFYPDYIAVEWQKNGQPESEDKYGTTTSQLDADGSYFLYSRLRVDKNSWQEGDTYACVVMHEALHNHYTQKSISKPPGK light: QAVLTQPSSVSRSLGQTVSITCSGSSDNVGFGDYVNWFQLIPGSAPKTLIFGASSRIRGVPDRFSGSRSGNTATLTINSLQAEDEADYYCGSANSRNYVFGSGTRLTVLSQPKSAPSVTLFPPSKEELDTNKATVVCLISDFYPGSVNVVWKADGSTINQNVKTTQASKQSNSKYAASSYLTLTGSEWKSKSSYTCEVTHEGSTVTKTVKPSECS | 0.855 |
| Mutation 1-31 (antibody) heavy: QVRLQESGPSQVKPAQTLSLTCAISGFSLTTYYLDWVRHTPGKPPEWLAQMTKDGNAVHQPTVRSRLSITRDTSKSQVFLKLTGVTTEDTAVYYCVRGIIDFGPGLLVTVSSASTTPPKVYPLTSCCGDTSSSIVTLGCLVSSYMPEPVTVTWNSGALTSGVHTFPAILQSSGLYSLSSVVTVPASTSGAQTFICNVAHPASSTKVDKRVEPGCPDPCKHCRCPPPELPGGPSVFIFPPKPKDTLTISGTPEVTCVVVDVGQDDPEVQFSWFVDNVEVRTARTKPREEQFNSTFRVVSALPIQHQDWTGGKEFKCKVHNEGLPAPIVRTISRTKGQAREPQVYVLAPPQEELSKSTLSVTCLVTGFYPDYIAVEWQKNGQPESEDKYGTTTSQLDADGSYFLYSRLRVDKNSWQEGDTYACVVMHEALHNHYTQKSISKPPGK light: QAVLTQPSSVSRSLGQTVSITCSGSSDNVGFGDYLNWFQLIPGSAPKTLIFGATSRLRGVPDRFSGSRSGNTATLTINSLQAEDEADYYCGSGNSRNYVFGSGTRLTVLSQPKSAPSVTLFPPSKEELDTNKATVVCLISDFYPGSVNVVWKADGSTINQNVKTTQASKQSNSKYAASSYLTLTGSEWKSKSSYTCEVTHEGSTVTKTVKPSECS | 1.84 |
| Mutation 1-34 (antibody, V domains shown) VH: QVRLQESGPSQVKPAQTLSLTCAISGFSVTTYYLDWVRHTPGKPPEWLAQMTKDGNAVHNPTIRSRLSITRDTSKSQVFLKLTGVTTEDTAVYYCVRGVIDWGPGLLVTVSS VL: QAVLTQPSSVSRSLGQTVSITCSGSSDQVGFGDYLNWFQLIPGSAPKTLIFGAYSRLRGVPDRFSGSRSGNTATLTINSLQAEDEADYYCGSANSRNYVFGSGTRLTVLS | 3.12 |
| Mutation 1-37 (antibody) heavy: QVRLQESGPSQVKPAQTLSLTCAISGFSITTYYLDWVRHTPGKPPEWLAQMTKDGNAVHNPTIRSRLSITRDTSKSQVFLKLTGVTTEDTAVYYCVRGIIDFGPGLLVTVSSASTTPPKVYPLTSCCGDTSSSIVTLGCLVSSYMPEPVTVTWNSGALTSGVHTFPAILQSSGLYSLSSVVTVPASTSGAQTFICNVAHPASSTKVDKRVEPGCPDPCKHCRCPPPELPGGPSVFIFPPKPKDTLTISGTPEVTCVVVDVGQDDPEVQFSWFVDNVEVRTARTKPREEQFNSTFRVVSALPIQHQDWTGGKEFKCKVHNEGLPAPIVRTISRTKGQAREPQVYVLAPPQEELSKSTLSVTCLVTGFYPDYIAVEWQKNGQPESEDKYGTTTSQLDADGSYFLYSRLRVDKNSWQEGDTYACVVMHEALHNHYTQKSISKPPGK light: QAVLTQPSSVSRSLGQTVSITCSGSSDQVGFGDYLNWFQLIPGSAPKTLIFGATSRLRGVPDRFSGSRSGNTATLTINSLQAEDEADYYCGSANSRNYVFGSGTRLTVLSQPKSAPSVTLFPPSKEELDTNKATVVCLISDFYPGSVNVVWKADGSTINQNVKTTQASKQSNSKYAASSYLTLTGSEWKSKSSYTCEVTHEGSTVTKTVKPSECS | 1.57 |
| Mutation 1-39 (antibody) heavy: QVRLQESGPSQVKPAQTLSLTCAISGFSLTTYYIDWVRHTPGKPPEWLAQMTKDGNAVHNPTLRSRLSITRDTSKSQVFLKLTGVTTEDTAVYYCVRGLIDFGPGLLVTVSSASTTPPKVYPLTSCCGDTSSSIVTLGCLVSSYMPEPVTVTWNSGALTSGVHTFPAILQSSGLYSLSSVVTVPASTSGAQTFICNVAHPASSTKVDKRVEPGCPDPCKHCRCPPPELPGGPSVFIFPPKPKDTLTISGTPEVTCVVVDVGQDDPEVQFSWFVDNVEVRTARTKPREEQFNSTFRVVSALPIQHQDWTGGKEFKCKVHNEGLPAPIVRTISRTKGQAREPQVYVLAPPQEELSKSTLSVTCLVTGFYPDYIAVEWQKNGQPESEDKYGTTTSQLDADGSYFLYSRLRVDKNSWQEGDTYACVVMHEALHNHYTQKSISKPPGK light: QAVLTQPSSVSRSLGQTVSITCSGSSDNVGFGDYVNWFQLIPGSAPKTLIFGAYSRIRGVPDRFSGSRSGNTATLTINSLQAEDEADYYCGSGNSRNYVFGSGTRLTVLSQPKSAPSVTLFPPSKEELDTNKATVVCLISDFYPGSVNVVWKADGSTINQNVKTTQASKQSNSKYAASSYLTLTGSEWKSKSSYTCEVTHEGSTVTKTVKPSECS | 2.45 |
| Mutation 1-49 (antibody) heavy: QVRLQESGPSQVKPAQTLSLTCAISGFSLTTYYLDWVRHTPGKPPEWLAQMTKDGNAVHNPTIRSRLSITRDTSKSQVFLKLTGVTTEDTAVYYCVRGIIDFGPGLLVTVSSASTTPPKVYPLTSCCGDTSSSIVTLGCLVSSYMPEPVTVTWNSGALTSGVHTFPAILQSSGLYSLSSVVTVPASTSGAQTFICNVAHPASSTKVDKRVEPGCPDPCKHCRCPPPELPGGPSVFIFPPKPKDTLTISGTPEVTCVVVDVGQDDPEVQFSWFVDNVEVRTARTKPREEQFNSTFRVVSALPIQHQDWTGGKEFKCKVHNEGLPAPIVRTISRTKGQAREPQVYVLAPPQEELSKSTLSVTCLVTGFYPDYIAVEWQKNGQPESEDKYGTTTSQLDADGSYFLYSRLRVDKNSWQEGDTYACVVMHEALHNHYTQKSISKPPGK light: QAVLTQPSSVSRSLGQTVSITCSGSSDQVGFGDYLNWFQLIPGSAPKTLIFGATSRLRGVPDRFSGSRSGNTATLTINSLQAEDEADYYCGSPNSRNYVFGSGTRLTVLSQPKSAPSVTLFPPSKEELDTNKATVVCLISDFYPGSVNVVWKADGSTINQNVKTTQASKQSNSKYAASSYLTLTGSEWKSKSSYTCEVTHEGSTVTKTVKPSECS | 6.83 |
| Mutation 1-51 (antibody) heavy: QVRLQESGPSQVKPAQTLSLTCAISGFSVTTYYIDWVRHTPGKPPEWLAQMTKDGNAVHNPTLRSRLSITRDTSKSQVFLKLTGVTTEDTAVYYCVRGLIDFGPGLLVTVSSASTTPPKVYPLTSCCGDTSSSIVTLGCLVSSYMPEPVTVTWNSGALTSGVHTFPAILQSSGLYSLSSVVTVPASTSGAQTFICNVAHPASSTKVDKRVEPGCPDPCKHCRCPPPELPGGPSVFIFPPKPKDTLTISGTPEVTCVVVDVGQDDPEVQFSWFVDNVEVRTARTKPREEQFNSTFRVVSALPIQHQDWTGGKEFKCKVHNEGLPAPIVRTISRTKGQAREPQVYVLAPPQEELSKSTLSVTCLVTGFYPDYIAVEWQKNGQPESEDKYGTTTSQLDADGSYFLYSRLRVDKNSWQEGDTYACVVMHEALHNHYTQKSISKPPGK light: QAVLTQPSSVSRSLGQTVSITCSGSSDNVGFGDYVNWFQLIPGSAPKTLIFGAYSRIRGVPDRFSGSRSGNTATLTINSLQAEDEADYYCGSANSRNYVFGSGTRLTVLSQPKSAPSVTLFPPSKEELDTNKATVVCLISDFYPGSVNVVWKADGSTINQNVKTTQASKQSNSKYAASSYLTLTGSEWKSKSSYTCEVTHEGSTVTKTVKPSECS | 0.944 |
| WT 1-1 (antibody, V domains shown) VH: QVRLQESGPSQVKPAQTLSLTCAISGPSVTTYYIDWVRHTPGKPPEWLAQMTKDANAVHNPTIRSRLSITRDTSKSQVFLKLTGVTTEDTAVYYCVKGVIDWGPGLLVTVSS V domain: QAVLTQPSSVSRSLGQTVSITCSGSSDNVGPGDYINWFQLIPGSAPKTLIFAAYSRIRGVPDRFSGSRSGNTATLTINSLQAEDEADYYCGSANSRNYVWGSGTRLTVLS | 17.8 |
| WT 1-2 (antibody, V domains shown) VH: QVRLQESGPSQVKPAQTLSLTCAISGPSLTTYYIDWVRHTPGKPPEWLAQMTKDANAVHQPTLRSRLSITRDTSKSQVFLKLTGVTTEDTAVYYCVKGVIDWGPGLLVTVSS V domain: QAVLTQPSSVSRSLGQTVSITCSGSSDNVGPGDYLNWFQLIPGSAPKTLIFAASSRIRGVPDRFSGSRSGNTATLTINSLQAEDEADYYCGSPNSRNYVWGSGTRLTVLS | 3.48 |
| WT 1-3 (antibody) heavy: QVRLQESGPSQVKPAQTLSLTCAISGPSITTYYLDWVRHTPGKPPEWLAQMTKDANAVHQPTIRSRLSITRDTSKSQVFLKLTGVTTEDTAVYYCVKGLIDFGPGLLVTVSSASTTPPKVYPLTSCCGDTSSSIVTLGCLVSSYMPEPVTVTWNSGALTSGVHTFPAILQSSGLYSLSSVVTVPASTSGAQTFICNVAHPASSTKVDKRVEPGCPDPCKHCRCPPPELPGGPSVFIFPPKPKDTLTISGTPEVTCVVVDVGQDDPEVQFSWFVDNVEVRTARTKPREEQFNSTFRVVSALPIQHQDWTGGKEFKCKVHNEGLPAPIVRTISRTKGQAREPQVYVLAPPQEELSKSTLSVTCLVTGFYPDYIAVEWQKNGQPESEDKYGTTTSQLDADGSYFLYSRLRVDKNSWQEGDTYACVVMHEALHNHYTQKSISKPPGK light: QAVLTQPSSVSRSLGQTVSITCSGSSDNVGPGDYVNWFQLIPGSAPKTLIFAATSRIRGVPDRFSGSRSGNTATLTINSLQAEDEADYYCGSANSRNYVWGSGTRLTVLSQPKSAPSVTLFPPSKEELDTNKATVVCLISDFYPGSVNVVWKADGSTINQNVKTTQASKQSNSKYAASSYLTLTGSEWKSKSSYTCEVTHEGSTVTKTVKPSECS | 2.53 |
